In this assay the target is T1, Norrin (Norrie Disease Protein), recombinant wild-type after removal of the SUMO fusion tag (human), Q00604.
T1 chain: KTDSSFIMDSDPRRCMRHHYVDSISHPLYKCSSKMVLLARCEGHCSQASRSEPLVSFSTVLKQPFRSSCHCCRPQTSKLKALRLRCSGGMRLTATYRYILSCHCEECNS
In words: SAXS; Norrin at 0.75 and 1.26 mg/ml in 10 mM HEPES, pH 7.5, 0.7 M NaCl, 0.5% CHAPS; 293 K. As to conditions: remark: other sources report otherwise.

As usually defined, the stoichiometry N is the number of molecules, sites or subunits per partner or assembly.

B1: Norrin (Norrie Disease Protein), recombinant wild-type after removal of the SUMO fusion tag, Q00604 25-133 (ligand)
chain: T1 chain
Regarding B1, the stoichiometry N was 2.

For the origin of these results see paper PMC4497409.
